Experimental data reported in patent publication US20230051715A1 (MABWELL THERAPEUTICS, published 2023).
Changes are numbered by the printed parent chain. Names and notes keep the numbering of the source.

T1: human C1s mutant M11 (S349P) (human, UniProt P09871 16-688)
T1 construct: The entry is the mutant itself
T1 sequence: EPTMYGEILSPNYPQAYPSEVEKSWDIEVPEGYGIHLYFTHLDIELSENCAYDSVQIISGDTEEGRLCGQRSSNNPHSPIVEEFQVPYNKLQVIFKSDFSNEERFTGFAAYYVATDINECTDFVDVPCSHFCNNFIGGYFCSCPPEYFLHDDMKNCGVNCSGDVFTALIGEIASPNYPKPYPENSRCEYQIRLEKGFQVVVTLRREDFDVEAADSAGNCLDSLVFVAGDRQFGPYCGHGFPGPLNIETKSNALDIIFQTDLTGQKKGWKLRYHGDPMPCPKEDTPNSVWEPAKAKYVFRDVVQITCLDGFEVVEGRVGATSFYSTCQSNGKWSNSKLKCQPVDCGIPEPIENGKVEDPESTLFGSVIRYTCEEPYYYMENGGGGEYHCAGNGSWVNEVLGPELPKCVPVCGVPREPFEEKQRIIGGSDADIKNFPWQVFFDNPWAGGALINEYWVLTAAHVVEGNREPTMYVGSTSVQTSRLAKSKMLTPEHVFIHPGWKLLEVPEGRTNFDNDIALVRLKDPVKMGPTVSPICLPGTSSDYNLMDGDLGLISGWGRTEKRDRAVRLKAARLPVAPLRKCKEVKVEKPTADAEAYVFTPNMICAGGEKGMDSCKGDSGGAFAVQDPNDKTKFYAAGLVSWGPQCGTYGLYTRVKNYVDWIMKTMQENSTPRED

T2: human C1s mutant M14 (R316H) (human, UniProt P09871 16-688)
T2 construct: The entry is the mutant itself
T2 sequence: T1 sequence with R316H, P349S

T3: human C1s mutant M18 (V288T) (human, UniProt P09871 16-688)
T3 construct: The entry is the mutant itself
T3 sequence: T1 sequence with V288T, P349S

B1: Anti-C1s antibody hz2-7(H1L2) (antibody, V domains shown)
VH: EVQLLESGGGLVQPGGSLRLSCAASGFTFSNYFMNWVRQAPGKGLEWVSEIRLKFTNYATHYADSVKGRFTISRDDSKSTLYLQMNSLRAEDTAVYYCTRDYGSRNGYFDYWGQGTLVTVSS
VL: DIVMTQTPLSLPVTPGEPASISCRSSKSLLHSNGNTFLYWFLQKPGQSPQLLIYRMSNLASGVPDRFSGSGSGTDFTLKISRVEAEDVGVYYCMQHLEYPYTFGGGTKLEIKR
notes: Humanized, human IgG1 / kappa; also called hz2-7(1L2)
B2: Anti-C1s antibody hz2-8 (H1L2 G80A) (antibody, V domains shown)
VH: QVQLVQSGAEVKKPGASVKVSCKASGFNIKEYYMHWVRQAPEQGLEWMGWIDPENADTIYAQKFQGRVTITADTSTNTAYMELSSLRSEDTAVYYCARSRLFFAYWGQGTLVTVSS
VL: DIQMTQSPKSLSASVGDRVTITCRASQDVRTALDWYQQKPGQSPKLLIYSASYRYSGVPSRFSGSGSGTDFTLTISSLQPEDFATYYCQQQYTTPYTFGQGTKLEIKR
notes: Humanized variant with G80A in HC CDR2 (already in the entry), human IgG1 / kappa
B3: Anti-C1s antibody hz2-8 (H1L2 G80A/T82A) (antibody, V domains shown)
VH: B2 VH with T58A
VL: B2 VL
notes: Humanized variant with G80A and T82A in HC CDR2 (already in the entry), human IgG1 / kappa

How the values were obtained:
[1] = molecular target: T1, human C1s mutant M11 (S349P); assay: ELISA, plate coated with human C1s mutant M11: S349P, OD450nm
Experimental: (§1) ELISA was carried out by first coating 96-well plates with 200 ng/well of full-length or truncated C1s proteins overnight. The next morning, plates were blocked with SuperBlock T20 blocking buffer (Thermo Scientific 37536) for 1 h with gentle shaking. Then, various concentrations of anti-C1s antibodies diluted in SuperBlock T20 blocking buffer were added to the plates and incubated for 1 h with gentle shaking. Mouse IgG (Sigma-Aldrich 15381) and human IgG1 (BioXCell BP0297) were used as negative controls. The plates were washed before incubating with HRP conjugated secondary antibodies diluted in SuperBlock T20 blocking buffer (goat anti-mouse IgG (H+L) cross-adsorbed secondary antibody HRP (Invitrogen G-21040) or goat anti-human IgG antibody, HRP conjugate (Millipore AP309P)) for 1 h with gentle shaking. At last, the plates were washed and color developed with ELISA liquid HRP substrate (Sigma-Aldrich), followed by stopping the reaction with addition of 1M H₂SO₄ in the same volume as the ELISA liquid substrate. Bound antibody was measured by absorbance at OD₄₅₀ₙₘ.
(§2) Binding of anti-C1s antibodies to mutants M1-M20 of human C1s was measured by ELISA as described in Example 4, and results are shown in FIGS. 6B-6U. All anti-C1s humanized variants including hz2-7(H1L2), hz2-8(H1L2 G80A) and hz2-8(H1L2 G80A/T82A) maintained strong binding properties to the majority (16 out of 20) of C1s mutants including M1 (FIG. 6B), M2 (FIG. 6C), M3 (FIG. 6D). M4 (FIG. 6E), M7 (FIG. 6H), M8 (FIG. 6I), M10 (FIG. 6K), M11 (FIG. 6L), M12 (FIG. 6M), M13 (FIG. 6N), M15 (FIG. 6P), M16 (FIG. 6Q), M17 (FIG. 6R), M18 (FIG. 6S), M19 (FIG. 6T) and M20 (FIG. 6U).

[2] = molecular target: T2, human C1s mutant M14 (R316H); assay: ELISA, plate coated with human C1s mutant M14: R316H, OD450nm
Experimental: as §1, §2

[3] = molecular target: T3, human C1s mutant M18 (V288T); assay: ELISA, plate coated with human C1s mutant M18: V288T, OD450nm
Experimental: as §1, §2

Row | Binder | EC50 [1] [ng/mL] | binding result [2] | EC50 [3] [ng/mL] | EC50 [2] [ng/mL]
1 | B1 | 5 | no binding (tested: 1000 ng/ml (Log 3)) | 5 | –
2 | B2 | 4 | – | 3 | 5
3 | B3 | 5 | – | 4 | 8
